One substance from paper PMC5813103, “Hydroxynitrile lyases from cyanogenic millipedes: molecular cloning, heterologous expression, and whole-cell biocatalysis for the production of (R)-mandelonitrile” (Scientific Reports, 2018) can be followed below.

This experiment has as its target Hydroxynitrile lyase from Nedyopus tambanus tambanus (NttHNL) (Nedyopus tambanus tambanus). Nature of the experiment: SEC; gel filtration of the purified native enzyme; Superdex 200 10/300 equilibrated with PBS; native 52400 Da against 28800 Da on SDS-PAGE. On the technique in general: In gel filtration, larger molecules generally elute earlier.

By stoichiometry N is commonly meant a count of units in the complex or per binding partner. “Hydroxynitrile lyase from Nedyopus tambanus tambanus (NttHNL) (enzyme)” came in with a stoichiometry N of 2.
